Experimental data: publication PMC9152131

Target: RFP-Hrs (UniProt O14964)
Chain of UniProt O14964 (O14964 whole entry): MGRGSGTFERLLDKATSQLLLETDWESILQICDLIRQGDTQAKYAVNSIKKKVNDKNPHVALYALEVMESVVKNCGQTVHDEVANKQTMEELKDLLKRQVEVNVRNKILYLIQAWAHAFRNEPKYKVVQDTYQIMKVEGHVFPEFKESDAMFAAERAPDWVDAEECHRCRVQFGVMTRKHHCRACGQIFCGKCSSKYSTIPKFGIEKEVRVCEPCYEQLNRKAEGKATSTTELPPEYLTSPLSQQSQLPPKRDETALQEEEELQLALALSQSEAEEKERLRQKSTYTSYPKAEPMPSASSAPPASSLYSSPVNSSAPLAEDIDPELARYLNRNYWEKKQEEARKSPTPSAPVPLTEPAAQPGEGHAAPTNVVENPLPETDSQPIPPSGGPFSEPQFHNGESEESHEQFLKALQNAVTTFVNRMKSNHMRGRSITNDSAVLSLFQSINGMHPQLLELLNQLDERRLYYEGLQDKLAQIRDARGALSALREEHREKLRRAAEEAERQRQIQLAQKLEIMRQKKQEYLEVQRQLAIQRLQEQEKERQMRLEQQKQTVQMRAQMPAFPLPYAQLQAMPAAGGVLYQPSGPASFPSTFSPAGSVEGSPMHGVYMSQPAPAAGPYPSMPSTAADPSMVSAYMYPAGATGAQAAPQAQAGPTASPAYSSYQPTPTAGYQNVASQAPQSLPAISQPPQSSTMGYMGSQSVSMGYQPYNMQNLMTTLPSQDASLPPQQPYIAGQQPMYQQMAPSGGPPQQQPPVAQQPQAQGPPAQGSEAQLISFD

B1: KIF13B-FRB-Myc (pBa-FRB-3myc-KIF13B tail 442–1826) (domain or fragment)
chain: KVGDDKCFLVNLNADPALNELLVYYLKEHTLIGSANSQDIQLCGMGILPEHCIIDITSEGQVMLTPQKNTRTFVNGSSVSSPIQLHHGDRILWGNNHFFRLNLPKKKKKAEREDEDQDPSMKNENSSEQLDVDGDSSSEVSSEVNFNYEYAQMEVTMKALGSNDPMQSILNSLEQQHEEEKRSALERQRLMYEHELEQLRRRLSPEKQNCRSMDRFSFHSPSAQQRLRQWAEEREATLNNSLMRLREQIVKANLLVREANYIAEELDKRTEYKVTLQIPASSLDANRKRGSLLSEPAIQVRRKGKGKQIWSLEKLDNRLLDMRDLYQEWKECEEDNPVIRSYFKRADPFYDEQENHSLIGVANVFLESLFYDVKLQYAVPIINQKGEVAGRLHVEVMRLSGDVGERIAGGDEVAEVSFEKETQENKLVCMVKILQATGLPQHLSHFVFCKYSFWDQQEPVIVAPEVDTSSSSVSKEPHCMVVFDHCNEFSVNITEDFIEHLSEGALAIEVYGHKINDPRKNPALWDLGIIQAKTRSLRDRWSEVTRKLEFWVQILEQNENGEYCPVEVISAKDVPTGGIFQLRQGQSRRVQVEVKSVQESGTLPLMEECILSVGIGCVKVRPLRAPRTHETFHEEEEDMDSYQDRDLERLRRKWLNALTKRQEYLDQQLQKLVSKRDKTEDDADREAQLLEMRLTLTEERNAVMVPSAGSGIPGAPAEWTPVPGMETHIPVIFLDLNADDFSSQDNLDDPEAGGWDATLTGEEEEEFFELQIVKQHDGEVKAEASWDSAVHGCPQLSRGTPVDERLFLIVRVTVQLSHPADMQLVLRKRICVNVHGRQGFAQSLLKKMSHRSSIPGCGVTFEIVSNIPEDAQGVEEREALARMAANVENPASADSEAYIEKYLRSVLAVENLLTLDRLRQEVAVKEQLTGKGKLSRRSISSPNVNRLSGSRQDLIPSYSLGSNKGRWESQQDVSQTTVSRGIAPAPALSVSPQNNHSPDPGLSNLAASYLNPVKSFVPQMPKLLKSLFPVRDEKRGKRPSPLAHQPVPRIMVQSASPDIRVTRMEEAQPEMGPDVLVQTMGAPALKICDKPAKVPSPPPVIAVTAVTPAPEAQDGPPSPLSEASSGYFSHSVSTATLSDALGPGLDAAAPPGSMPTAPEAEPEAPISHPPPPTAVPAEEPPGPQQLVSPGRERPDLEAPAPGSPFRVRRVRASELRSFSRMLAGDPGCSPGAEGNAPAPGAGGQALASDSEEADEVPEWLREGEFVTVGAHKTGVVRYVGPADFQEGTWVGVELDLPSGKNDGSIGGKQYFRCNPGYGLLVRPSRVRRATGPVRRRSTGLRLGAPEARRSATLSGSATNLASLTAALAKADRSHKNPENRKSWAS
For B1, the percentage of transfected N2a cells exhibiting rapalog-induced Hrs recruitment to the centrosome/centriole (transport assay with BicD2-GFP-FKBP, kinesin tail-FRB-Myc and linker AP21967) was 13%.
